Measurements as given in patent US20110027820A1.

Target: Gal4 DNA binding domain (DBD) fused to the RXR ligand binding domain (GBD:RXR) (yeast; human) (UniProt P04386)
Assay: cell-based or functional assay

“human nuclear receptor coactivator ACTR fused to the yeast Gal4 activation domain (ACTR:GAD) (from UniProt Q9Y6Q9 1-1424)” was tested, and the increase in the sensitivity of chemical complementation (yeast growth in response to 9cRA) against GBD:RXR alone was 1000 fold.
